Test results reported in the nanobody polyreactivity screen of Harvey et al. (2022).

Experiment: yeast display, Sf9 membrane polyspecificity reagent, FACS + sequencing; frameworks hold sequencing errors
How it was run: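 Synthetic nanobody libraries on Saccharomyces cerevisiae BJ5465 were galactose-induced for 36–48 hours, stained 1 hour at 4 °C with 10% biotinylated, detergent-solubilized Sf9 membrane reagent and enriched on streptavidin microbeads. FACS then separated cells into low and high (top ~1%) gates by anti-HA (expression) and streptavidin (reagent binding) fluorescence. Genes were colony-PCR amplified, MiSeq 2 × 250 sequenced and CDR-length filtered. A clone's polyreactivity label is that of its gate of origin.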

Sequence	polyreactivity (PSR sort gate)
QVQLVESGGGLVQAGGSLRLSCAASGVTFTYYAMGWYRQAPGKERELVAAISKSGGRTYYADSVKGRFTISRDNAKNTVYLQMNSLKPEDTAVYYCAARITREGYYWGQGTQVTVSS	high polyreactivity
QVQLVESGGGLVQAGGSLRLSCAASGVTFYYYAMGWYRQAPGKERELVASITSTDSTTYADSVKGRFTISRDNAKNTVYLQMNRLKPEDTAVYYCNRLYNHWYGGLDYWGQGTQVTVSS	high polyreactivity
QVQLVESGGGLVQAGGSLRLSCAASGYIFAGNAMGWYRQAPGKERELVAVITRGGRTYYADSVKGRFTISRDNAKNTVYLQMNSLKPEDTAVYYCAARYPYRGWGQGTQVTVSS	high polyreactivity
QVQLVESGGGLVQAGGSLRLSCAASGYIFANNAMGWYRQAPGKERELVAAISSSGGRTYYADSVKGRFTISRDNAKNTVYLQMNSLKPEDTAVYYCNKYGTALWRYYYWGQGTQVTVSS	high polyreactivity
QVQLVESGGGLVQAGGSLRLSCAASGYIFARYAMGWYRQAPGTERELVARITTGDSTYYADSVKGRFTISRDNAKNTVYLQMNSLKPEDTAVYYCAADDNVSVVGLYYWGQGTQVTVSS	low polyreactivity
QVQLVESGGGLVQAGGSLRLSCAASGYIFDDNAMGWYRQAPGKERELVATNYADSVKGRFTISRDNAKNTVYLQMNSLKPEDTAVFYCAKAGYRSEFEYWGQGTQVTVSS	low polyreactivity
QVQLVESGGGLVQAGGSLRLSCAASGYIFDLNAMGWSRQAPGKERELVAANSTGGGTYYADSVKGRFTISRDNAKNTVYLQMNILKPEDTAVYYCAADWGYWYAEYDYWGQGTQVTVSS	low polyreactivity
QVQLVESGGGLVQAGGSLRLSCAASGYIFDRYAMGWYRQAPGKERELVAAISGRGGSTYYADSVKGRFTISRDNAKNTVYLQMNSLKPEETAVYYCARDVYVRNGQRARYDSWGQGTQVTVSS	high polyreactivity
QVQLVESGGGLVQAGGSLRLSCAASGYIFDVNTMGWYRQAPGKERELFAAITSGGTTYYADSVKGRFTISRDNAKNTVYLQMNSLKPEDTAVYYCAARRYPFEYDYWGQGTQVTVSS	high polyreactivity
QVQLVESGGGLVQAGGSLRLSCAASGYIFERNALGWYRQAPGKERELVAAINWRTGRTYYADSVKGRFTISRDYAKYNVYLQMNSLKPEDTAVYYCAKEHSTYWAQPTYSYDNWGQGTQVTVSS	low polyreactivity
QVQLVESGGGLVQAGGSLRLSCAASGYIFERNAMGWYRQAPGKERELVAAITDDGDDTYYADSVKGRFTISRDNAKNTVYLQMNSLKAEDTAVYYCAKDLYYGDYYYWGQGTQVTVSS	low polyreactivity
QVQLVESGGGLVQAGGSLRLSCAASGYIFEVNAMGWYRQAPGKERELVATIDTSSGSTNYADSVKGRFTISRDNAKNTVYLQMNSLKPEDTAVYYCAADDETVFLQDDYWGQGTQVTVSS	low polyreactivity
QVQLVESGGGLVQAGGSLRLSCAASGYIFFFYAMGWYRQAPGKERELVASITYRGGSTYYADSVKGRFTISRDNSKNTVYLQMNSLKPEDTAVYYCAADVRASRFDYWGQGTQVTVSS	low polyreactivity
QVQLVESGGGLVQAGGSLRLSCAASGYIFFGNAMGWYRQAPGKERELVAAIRWRGTSTYYADSVKGRFTISRDNAKNTVYLQMNSLKPEDTAVYYCARLRTVGGYSKYDYWGQGSQVTVSS	low polyreactivity
QVQLVESGGGLVQAGGSLRLSCAASGYIFGGNTLGWYRQAPGKERELVAAISYSGTSTYYADSVKGRFTISRDNAKNTVYLQMNSLKPEDTAVYYCAARERWYGSYYWGQGTQVTVSS	high polyreactivity
QVQLVESGGGLVQAGGSLRLSCAASGYIFGHYAMGWYRQAPGKERELVAGITWRGGSTYYADSVKGRFTISRDNAKNTVYLQMNSLKPEDTAVYYCNAQYTQRWPYGLYYEMDYWGQGTQVTVSS	low polyreactivity
QVQLVESGGGLVQAGGSLRLSCAASGYIFGHYTMGWYRQAPGKERELVAGISSGGITYYADSVKGRFTISRDNAKNSDYLQMNSLKPEDTAVYYCAAYWRRRLDYYYWGQGTQVTVSS	high polyreactivity
QVQLVESGGGLVQAGGSLRLSCAASGYIFGNYAMGWYRQAPGKERELVAAISKSGVTTYYADSVKGRFTISRDNAKNTVYLQMNSLKPEDTAVYYCNARSWRPINARYNEYDYWGQGTQVTVSS	low polyreactivity
QVQLVESGGGLVQAGGSLRLSCAASGYIFGVYAMGWYRQAPGKERELVAVITVTGGSTYYADSVKGRFTISRDNAKNTVYLQMNSLKPEDTAVYYCAARGYGNLARVYHGYGYWGQGTQVTVSS	high polyreactivity
QVQLVESGGGLVQAGGSLRLSCAASGYIFGYNAMGWYRQAAGQERELVAAITYSGGNTYYADSVKGRFTISRDNANNTVYLQMNSLKPEDTAVYYCAADFLYGAEGNEYWGQGTQVTVSS	high polyreactivity
QVQLVESGGGLVQAGGSLRLSCAASGYIFGYYVMGWYRQAPGKERELVAAITGRGGSTYYADSVKGRFTISRDNAKNTVYLQMISLKPEDTAVYDCAADATSYPYDPWHLYEIWEYYYWGQGTQVTVSS	low polyreactivity
QVQLVESGGGLVQAGGSLRLSCAASGYIFHLYGMGWYRQAPGKERELVARISYRGGSTYYADSVKGRFTISRDNAKNTVYLQMNSLKPEDTAVYYCAKDYYKHYYWGQGTQVTVSS	high polyreactivity

Sequence	polyreactivity (PSR sort gate)
QVQLVESGGGLVQAGGSLRLSCAASGYIFHRYAMGWYRQAPGKERELVAAITWTGARTYYADSVKGRFTISRDNAKNTVYLQMNSLKPEDTAVYYAAPASYSFAKSGYWGQGTQVTVSS	high polyreactivity
QVQLVESGGGLVQAGGSLRLSCAASGYIFIFYAMGWYRQAPGKDRELVAAITDSGGSTYYADSVKGRFTISRDNAQNTVYLQKNSLKPEDTAVYYCADPYYFYRDRYRLDYWGQGTQVTVSS	low polyreactivity
QVQLVESGGGLVQAGGSLRLSCAASGYIFKNYAMGWYRQAPGKERELVAAITRRGASTYYADSVKGRFTITRDNAKNTVYLQMNSLKPEDTAVYYCAAYPWPPGEYDYWGQGTQVTVSS	low polyreactivity
QVQLVESGGGLVQAGGSLRLSCAASGYIFKPNTMGWYRQAPGKERELVAAITRGGRTKYADSVKGRFTISRDNAKNTVYLQMNSLKPEDTAVYYCAAALPVQYRDMYSWGQGTQVTVSS	high polyreactivity
QVQLVESGGGLVQAGGSLRLSCAASGYIFKSNVMGWYRQAPGKERELVAAISWSGGRTYYADSVKGRFTISRDNAKNTDYLQMNSLKPEDTAVYYCAAVGRQSNYYVDYDYWGQGTQVTVSS	high polyreactivity
QVQLVESGGGLVQAGGSLRLSCAASGYIFKSNVMGWYRQAPGKERELVAAISWSGGRTYYADSVKGRFTISRDNAKNTVYFQRNSLKPEDTAVYYCAAVGRQSNYYVDYDYWGQGTQVTVSS	high polyreactivity
QVQLVESGGGLVQAGGSLRLSCAASGYIFKYNAMGWYRQAPGKERELVAAISGRGGSTYYADSVKGRFTISRDNAKNTVYLQMNSLKPEDTAVYYCNADYQARRYNYWGQGTQVTVSS	high polyreactivity
QVQLVESGGGLVQAGGSLRLSCAASGYIFKYYVMGWYIQAPGKERELVAGISSTGGTTYYADSVKGRFTISRDNAKNTVYLQMNSLKPEDSAVYYFAADRVYEASQGYTYFDYDYWGQGTQVTVSS	low polyreactivity
QVQLVESGGGLVQAGGSLRLSCAASGYIFLFYGMGWYRQAPGKERELVASITGTGGNTYYADSVKWRFTISRDNAKNTVYLQMNSLKPEDTAVDYCYADDGYSWGYAYYYSELDYWGQGTQVTVSS	low polyreactivity
QVQLVESGGGLVQAGGSLRLSCAASGYIFLGNAMGWYRQAPGKERELVAAISRSGGSTYYADSVKGRFTISRDNAKNTVYLQMNSLKPEATAVYYCAAGTRIYNSWIRFDYWGQGTQVTVSS	high polyreactivity
QVQLVESGGGLVQAGGSLRLSCAASGYIFLTNAMGWYRPAPGKERELVAAISVSGGRTYYADSVKGRFTISRDNAKNTVYLQMNSLKPEDTAVYYCNTLLTYGYDYWGQGTQVTVSS	low polyreactivity
QVQLVESGGGLVQAGGSLRLSCAASGYIFLTNAMGWYRQAPGKEREWVAAISVSGGRTYYADSVKGRFTISRDNAKNTVYLQMNSLKPEDTAVYYCNTLLTYGYDYWGQGTQVTVSS	low polyreactivity
QVQLVESGGGLVQAGGSLRLSCAASGYIFNYYAMGWYRQAPGKERELVAAISWDGTDTYYADSVKGRFTISRDNAKNTVYLQMNSLKPEDTAVYYCNADYDVYGWRNYWGQGTQVTVSS	low polyreactivity
QVQLVESGGGLVQAGGSLRLSCAASGYIFPKNAMGGYRQAPGKERELVAAITGSGGSTYYADSVKGRFTISRDNAKNTVYLQMISLKPEDTAVYYCAKRSWFEYDYWGQGTQVTVSS	low polyreactivity
QVQLVESGGGLVQAGGSLRLSCAASGYIFPTYGMGWYRQAPGKERELVADITNNAGSTYYADSVKGRFTISRDKAKNTVYLQMKSLKPEDTEVYYCAADAYWPYWPYSYDYWGHGTQVTVSS	low polyreactivity
QVQLVESGGGLVQAGGSLRLSCAASGYIFQPYAMGWYRQAPGKERELVAAIDWTGGRTYYADSVKGRFTISRDNAKNTVYLQMNSLKPEVTAVYYCNADFGYWWDGRRYDYWGQGTQVTVSS	low polyreactivity
QVQLVESGGGLVQAGGSLRLSCAASGYIFRFNAMGWYRQAPGKERELVAVITKSGGSTYYADSVKGRFTISRDNAKNTVYLQMNSLKPEDTAVYDCNADRFYIDYTNTYDSIRDYWGQGTQVTVSS	low polyreactivity
QVQLVESGGGLVQAGGSLRLSCAASGYIFRGYVMGWYRQAPGKERELVAGISRSGSSTYYADSVKGRFTISRDNAKNTVYLQMNSLKPEDTAVYYCAAVRSGIEYGYWGQGTQVTVSS	high polyreactivity
QVQLVESGGGLVQAGGSLRLSCAASGYIFRHYAMGWYRQAPGKERELVAAISGRGGSTYYADSVKGRFTISRDNAKNTVYLQMNSLKPEDTAVYYCAKDRKAVGDFYYWGQGTQVTVSS	high polyreactivity
QVQLVESGGGLVQAGGSLRLSCAASGYIFRIYAMGWYRQAPGKERELVARISSGGGTNYADSVKGRFTISRDNAKNTVYLQMNSLKPEDTAVYYCNAGYGYQRGGVFFYRMGYWGQGTQVTVSS	high polyreactivity
QVQLVESGGGLVQAGGSLRLSCAASGYIFRKYAMGWYRQAPGKERELVADISSSGGSTYYADSVKGRFTISRDNAKNTVYLQMNSLKPEDTAVYYCAKDRKSSRRITRMDYWGQGTQVTVSS	high polyreactivity
